For one molecule, IC50 results are on record in patent publication US20070202045A1 (published 2007).

Bridges are numbered along the chain shown (N, C = ends).

For this experiment, the target named is T1, rabbit albumin (rabbit, UniProt P49065 25-608).
T1 chain: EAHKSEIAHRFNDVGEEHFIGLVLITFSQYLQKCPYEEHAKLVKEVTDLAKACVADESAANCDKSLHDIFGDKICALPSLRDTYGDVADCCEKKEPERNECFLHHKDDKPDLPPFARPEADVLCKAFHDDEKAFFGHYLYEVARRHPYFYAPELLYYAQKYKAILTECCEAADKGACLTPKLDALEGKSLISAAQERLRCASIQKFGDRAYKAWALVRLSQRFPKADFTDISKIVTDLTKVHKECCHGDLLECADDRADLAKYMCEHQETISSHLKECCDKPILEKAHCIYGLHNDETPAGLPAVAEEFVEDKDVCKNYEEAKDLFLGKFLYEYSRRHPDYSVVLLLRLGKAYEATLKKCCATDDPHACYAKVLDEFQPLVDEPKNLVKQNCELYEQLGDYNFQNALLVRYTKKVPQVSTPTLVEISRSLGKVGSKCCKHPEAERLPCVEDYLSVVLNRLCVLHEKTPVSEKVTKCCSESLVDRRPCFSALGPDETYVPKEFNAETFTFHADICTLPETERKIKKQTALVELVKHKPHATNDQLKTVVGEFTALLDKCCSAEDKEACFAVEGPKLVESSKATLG
The experiment can be described thus: competition ELISA (SA08b binding to rabbit albumin).

B1: SA08 (peptide)
peptide: Ac-QGLIGDICLPRWGCLWGDSVK-NH2
modifications: disulfide 8-14 (inferred)
The molecule B1 came in with an IC50 of 33 nM.

Usually IC50 stands for the point on the concentration scale where inhibition reaches its midpoint. A lower IC50 goes with higher potency.
